Values joined by “and” are separate entries in the source; they are usually repeats but may differ in a detail not shown here. Equal entries are not always repeated. “Also recorded” adds a separate entry of the source.
Legend:
H1299 = test: ADC dose-response, CellTiter-Glo viability assay; format: cell-based; details: H1299 non-binding cells
Description: (§1) Cells were seeded into a black coated 96 well plate (Grenier Bio-one, UK) at a range of density from 1000-5000 cells per well (depending on the cell type used) and 90 μL per well. The plate was then incubated for 24 hours at 37° C. in humidified air with 5% CO2. After 24 hours, 10 μL of mAb or buffer was added to each well and the plate was again placed at 37° C. in humidified air with 5% CO2. 4 days after addition of mAb or buffer, 100 μL of CTG substrate (Promega, Wisconsin, USA) was added to each well. The plate was then left in the dark for 10 minutes, with vigorous shaking. The cell viability of the samples was then quantified using Tecan I-control (Tecan, Switzerland).
(§2) GR6A04 and a commercial mouse IgG1 isotype antibody (Clone MG1.45 from BioLegend) were directly conjugated with MMAE toxin (Moradec, San Diego, USA) at a DAR of 3.0 and 3.3 respectively. Dose-response curve for the conjugated mAbs were established with the CTG assay with a serial dilution range of 0 to 4.5 μg/ml. The cell viability of the cells was measure 4 days post treatment as described previously.

A549−GR6A04− populations = test: ADC dose-response, CellTiter-Glo viability assay; format: cell-based; details: A549−GR6A04− non-binding cells
Description: as §1, §2

A549−GR6A04+ cells [1] = test: ADC dose-response, CellTiter-Glo viability assay; format: cell-based; details: viability 4 days post treatment
Description: as §1, §2

PC-9 [2] = test: ADC dose-response, CellTiter-Glo viability assay; format: cell-based; details: viability 4 days post treatment
Description: as §1, §2

A549−GR6A04+ cells [3] = test: Subcutaneous xenograft model; format: in vivo, NCr Nude mice; details: for tumour growth versus buffer control: 10 mg/kg, 3 doses on D0, D4 and D8, start at tumour size >150 mm3
Description: Xenograft models were established using A549−GR6A04+ cells in NCr Nude mice. 5E6 cells in DMEM basal media were mixed at a 1:1 ratio with Matrigel, and injected subcutaneously at a volume of 200 μl. Tumours were allowed to form and reach a size of >150 mm^3, before they were randomised into 5 groups of 5 mice each. The groups were treated with mAbs as follows: (1) Buffer control; (2) GR6A04-MMAE; (3) Hu-GR6A04; (4) GR6A04; (5) MG1.45-MMAE isotype control. mAbs were injected via tail vein injection at a total volume of 100 μl. Each dose, were applicable, is at 200 μg (equivalent to 10 mg/kg), and treatment was done every 4 days, for a total of 3 doses (Day 0, 4 and 8). Tumour size was monitored over 50 days.

PC-9 and A549 cells = test: Flow cytometry binding of GR6A04 derivatives; format: cell-based
Description: Cells were harvested as single cell suspensions using trypsin. 1E5 cells were used per sample, and incubated with 100 μl of mAb culture supernatant for 30 min. Cells were then washed with 1% bovine serum albumin in PBS, and further incubated with 100 μl of goat anti-mouse antibody fluorescein isothiocyanate (FITC)-conjugated (1:500, DAKO, Denmark) for 15 min at 4° C. in the dark. Cells were again washed and resuspended in 200 μL of 1% BSA/PBS for analysis on Guava® easy Cyte 8HT Benchtop Flow Cytometer (Merck Millipore, USA). For interrogation of […] binding, cells were fixed with 4% PFA/PBS (Affymetrix, USA) at room temperature for 10 min, washed in PBS, and permeabilised with 0.1% triton/PBS for 5 min at room temperature, before proceeding with incubation with mAb supernatant/primary antibody. For staining with propidium iodide, PI was added to a final concentration of 5 μg/mL for 5 min just prior to analysis by the flow cytometer.

PC-9 [4] = test: ADCC reporter bioassay (Promega, Luciferase reporter for FcγR); format: cell-based
Description: (§3) ADCC activity was measured using a reporter bioassay (Promega; ADCC Reporter Bioassay, #G7010). The ADCC bioassay was carried out according to the manufacturer's protocol Briefly, PC-9 and A549 cells were seeded at 5,000 cells per well in a 96-well clear bottom black tissue culture plates (Corning; #3904) in low 4% IgG-serum (Promega; #G711A) media and allowed to attach and spread overnight. Serial dilutions of Hu-GR6A04 were incubated in triplicate wells for approximately 15 min at 37° C., 5% CO2. Following incubation, engineered effector cells were added to the wells at approximately 150,000 cells per well. After 6 hours, Bio-Glo™ Luciferase Assay Substrate (Promega; #G719A and #G720A) was added to the wells and luminescence was measured using the Infinite® 200 microplate reader (Tecan).

A549−GR6A04+ = test: as above; format: cell-based
Description: as §3

| Molecule | effect on cell growth (H1299) | effect on cell growth (A549−GR6A04− populations) | EC50 (A549−GR6A04+ cells [1]) [nM] | EC50 (PC-9 [2]) | tumour growth versus buffer control (A549−GR6A04+ cells [3]) | tumour growth (A549−GR6A04+ cells [3]; I.V. 10 mg/kg, every 4 days for 3 doses, throughout the 45 days of study) [fold] | flow cytometry binding (PC-9 and A549 cells) | EC50 (PC-9 [4]) [nM] | EC50 (A549−GR6A04+) [nM] |
| --- | --- | --- | --- | --- | --- | --- | --- | --- | --- |
| GR6A04-MMAE (conjugate) VH: SGPELVKPGASVKMSCKASGNTFTSYVMHWVKQKPGQGLEWIGYINPYNDGTKYNEKFKGKATLTSDKSSSTAYMELSSLTSEDSAVYYCARSTARATPYFYAMDYWGQGTSVTVSS VL: DILMTQSPSSLAVTAGEKVTMRCKSSQSLLWSVNQNSYLSWYQLKQGQPPKLLLYGASIRESWVPDRFTGSGSGTDFTLTISNVHVEDLAVYYCQHNHGSFLPYTFGGGTKLEIK | did not have an effect on cell growth | did not have an effect on cell growth | 3.33 | 19.8 nM and 19.6 nM | little tumour growth | < 2 | comparable to unconjugated GR6A04; also recorded: not affected after conjugation |  |  |
| Hu-GR6A04: human chimeric mAb with GR6A04 VH and VL cloned into a human Ig constant region backbone, expressed in CHO cells (antibody, V domains shown) VH: SGPELVKPGASVKMSCKASGNTFTSYVMHWVKQKPGQGLEWIGYINPYNDGTKYNEKFKGKATLTSDKSSSTAYMELSSLTSEDSAVYYCARSTARATPYFYAMDYWGQGTSVTVSS VL: DILMTQSPSSLAVTAGEKVTMRCKSSQSLLWSVNQNSYLSWYQLKQGQPPKLLLYGASIRESWVPDRFTGSGSGTDFTLTISNVHVEDLAVYYCQHNHGSFLPYTFGGGTKLEIK |  |  |  |  | repression of tumour growth; also recorded: slower growth compared to the buffer control |  | comparable to GR6A04 | 39.6 | 1.33 |

From US12227570B2, “Anti-CEACAM6 antibodies and methods of use” (Singapore Health Services PTE LTD, priority 2016, dated 2025)
